Source: patent US20200071380A1, “COMBINATION THERAPIES COMPRISING SIRP ALPHA-BASED CHIMERIC PROTEINS” (Shattuck Labs, Inc., priority 2018, published 2020)

Columns and labels:
FcγR-Ia = FcγR-Ia (Homo sapiens, UniProt P12314); test: SPR binding to FcγR-Ia; settings: surface plasmon resonance (SPR)
Excerpt: Scale is shown and yellow arrows correspond with each identified monomer. A schematic of the hexamer species is shown to the right, depicting dimerization of the Fc domain and trimerization of the CD40L domain. […] Recombinant hSIRPα-Fc, hCD40L-Fc, and hIgG1 were used as positive controls. […] In both panels, the CHOK1 Parental is on the left and the CHOK1/hCD47 is on the right. […] For both graphs, the CHOK1 Parental is on the bottom. […] In this figure, the control is the top curve, the SIRPα-Fc-CD40L is the middle curve, and the anti-CD47 is the bottom curve.
The extracellular domain (ECD) of SIRPα and the ECD of CD40L were fused via an antibody Fc domain to generate SIRPαECD-Fc-CD40LECD chimeric proteins. When human proteins were used, the chimeric protein is referred to as hSIRPα-Fc-CD40L; when murine proteins were used, the chimeric protein is referred to as and mSIRPα-Fc-CD40L. […] The purified protein was then analyzed for the presence of each individual domain by Western blotting using anti-SIRPα, anti-Fc, and anti-CD40L antibodies (FIG. 3A, bottom). […] Next, binding affinities for SIRPα-Fc-CD40L to recombinant CD47, CD40, or Fc receptors were evaluated by surface plasmon resonance (SPR). […] A functional ELISA evaluated whether SIRPα-Fc-CD40L could outcompete a commercially available single-sided SIRPα-Fc control for binding to recombinant CD47 (FIG. 3H).

FcγR-IIb = target: T1, FcγR-IIb (Homo sapiens, UniProt P31994); test: SPR binding to FcγR-IIb; settings: surface plasmon resonance (SPR)
T1 sequence (P31994 43-310): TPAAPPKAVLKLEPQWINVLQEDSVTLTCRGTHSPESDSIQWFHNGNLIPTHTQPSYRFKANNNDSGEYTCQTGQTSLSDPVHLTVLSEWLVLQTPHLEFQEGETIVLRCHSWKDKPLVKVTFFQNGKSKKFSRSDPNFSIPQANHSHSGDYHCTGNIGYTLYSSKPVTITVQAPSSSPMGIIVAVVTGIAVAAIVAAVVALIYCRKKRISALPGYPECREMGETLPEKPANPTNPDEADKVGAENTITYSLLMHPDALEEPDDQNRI
Excerpt: (§1) The extracellular domain (ECD) of SIRPα and the ECD of CD40L were fused via an antibody Fc domain to generate SIRPαECD-Fc-CD40LECD chimeric proteins. When human proteins were used, the chimeric protein is referred to as hSIRPα-Fc-CD40L; when murine proteins were used, the chimeric protein is referred to as and mSIRPα-Fc-CD40L. Generically, the chimeric protein is referred to as SIRPα-Fc-CD40L. […] Mammalian cells were then transfected with the hSIRPα-Fc-CD40L expressing construct, and the secreted protein was purified from conditioned media by affinity chromatography. The purified protein was then analyzed for the presence of each individual domain by Western blotting using anti-SIRPα, anti-Fc, and anti-CD40L antibodies (FIG. 3A, bottom). […] The reduced and deglycosylated form of the protein migrated at the predicted monomeric molecular weight of 90.1 kDa. […] Next, binding affinities for SIRPα-Fc-CD40L to recombinant CD47, CD40, or Fc receptors were evaluated by surface plasmon resonance (SPR). […] Finally, to confirm that SIRPα-Fc-CD40L interacted with native CD47 and CD40 in a similar manner to recombinant CD47 and CD40, CHOK1-hCD47 and CHOK1-hCD40 reporter cell lines were developed (FIG. 3F). […] A functional ELISA evaluated whether SIRPα-Fc-CD40L could outcompete a commercially available single-sided SIRPα-Fc control for binding to recombinant CD47 (FIG. 3H).

FcγR-IIIb = FcγR-IIIb (Homo sapiens, UniProt O75015); test: SPR binding to FcγR-IIIb; settings: surface plasmon resonance (SPR)
Excerpt: as §1

[1] = test system: CD8+ T cell-depleted PBMC; test: Proliferation of CD8+ T cell-depleted PBMC ([3H]-thymidine); assay type: cell-based, human; settings: 0.3, 3, 30, or 300 nM; 7-day culture
Method: (§2) Here, proliferation was assessed via [^3H]-Thymidine incorporation on days 5, 6, and 7. The order of samples (in triplicate) along the X-axis is media only, KLH, Exenatide, 0.3 nm SIRPα-Fc-CD40L, 3 nm SIRPα-Fc-CD40L, 30 nm SIRPα-Fc-CD40L and 300 nm SIRPα-Fc-CD40L. […] Here, proliferation was assessed by ELISpot. The order of samples (in triplicate) along the X-axis is media only, KLH, Exenatide, 0.3 nm SIRPα-Fc-CD40L, 3 nm SIRPα-Fc-CD40L, 30 nm SIRPα-Fc-CD40L and 300 nm SIRPα-Fc-CD40L.
(§3) The observation that SIRPα-Fc-CD40L stimulated CD40 signaling prompted investigation of other cellular functions that depend upon CD40 signaling. CD8+ T cell-depleted PBMC were isolated from a total of 33-50 different human donors and cultured in the presence of a dose-titration of hSIRPα-Fc-CD40L (FIG. 6A and FIG. 6B).

[2] = test system: CD8+ T cell-depleted PBMC; test: IL-2 ELISpot of CD8+ T cell-depleted PBMC; assay type: cell-based, human; settings: day 8 of the culture
Method: as §2, §3

[3] = Repeat-dose safety and activity study in cynomolgus macaques; assay type: in vivo; settings: intravenous infusion every week for five weeks, 0.1, 1, 10 and 40 mg/kg
Method: FIG. 21A-D is a graph showing cynomolgus macaques that were treated with vehicle, or 0.1, 1, 10, and 40 mg/kg of SIRPα-Fc-CD40L. Blood chemistry analysis assessed peripheral erythrocyte counts (FIG. 21A), hemoglobin levels (FIG. 21C), and hematocrit (FIG. 21B). In addition, the fold-change in lymphocyte count from pre-dose to 24 hours post-dose is shown (FIG. 21D).
The experiments of this example tested the safety and activity of the human SIRPα-Fc-CD40L chimeric protein following repeat doses in cynomolgus macaques. Briefly, naïve cynomolgus macaques were administered the human SIRPα-Fc-CD40L chimeric protein by intravenous infusion every week, for five consecutive weeks, at doses of 0.1, 1, 10 and 40 mg/kg. Standard hematology and clinical chemistry parameters were collected before and after each dose.
Receptor occupancy was evaluated on circulating CD40+ lymphocytes.

Sequence of FcγR-Ia (P12314 16-374): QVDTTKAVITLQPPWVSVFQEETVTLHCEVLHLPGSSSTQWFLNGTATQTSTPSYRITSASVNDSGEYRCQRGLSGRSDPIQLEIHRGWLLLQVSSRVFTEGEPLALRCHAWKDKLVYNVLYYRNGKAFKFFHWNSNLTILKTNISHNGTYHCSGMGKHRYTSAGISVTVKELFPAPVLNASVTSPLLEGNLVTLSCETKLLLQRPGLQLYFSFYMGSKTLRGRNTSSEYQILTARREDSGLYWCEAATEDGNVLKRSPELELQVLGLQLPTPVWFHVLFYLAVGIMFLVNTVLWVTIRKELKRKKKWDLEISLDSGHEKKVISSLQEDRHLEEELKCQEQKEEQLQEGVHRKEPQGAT
Sequence of FcγR-IIIb (O75015 17-200): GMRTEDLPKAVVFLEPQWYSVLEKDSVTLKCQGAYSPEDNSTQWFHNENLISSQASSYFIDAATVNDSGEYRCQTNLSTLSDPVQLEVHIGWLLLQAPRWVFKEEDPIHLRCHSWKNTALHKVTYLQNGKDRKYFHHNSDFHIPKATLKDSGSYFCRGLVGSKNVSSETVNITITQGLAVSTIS

## hSIRPα-Fc-CD40L: Chimeric protein: human SIRPα extracellular domain fused via an antibody Fc domain to human CD40L extracellular domain (SEQ ID NO: 60)
FcγR-Ia
  binding to FcγR-Ia: undetectable binding
FcγR-IIb
  binding to FcγR-IIb: undetectable binding
FcγR-IIIb
  binding to FcγR-IIIb: undetectable binding
[1]
  proliferation of human PBMC: dose-dependent proliferation of human PBMC
[2]
  number of IL-2-secreting PBMC: dose-dependent increase in the number of IL-2-secreting PBMC
[3]
  hemolysis or thrombocytopenia: no evidence of hemolysis or thrombocytopenia
